Drawing on PMC4193212, this text covers β-galactosidase activity (two-hybrid reporter) (nmol ONP/min/mg protein) for three substances.

Common to all, as to experiment: two-hybrid; split-ubiquitin yeast two-hybrid (DUALhunter), S. cerevisiae NMY51; bait as Cub fusion, prey as NubG fusion; growth on SD-LWHA with 45 and 55 mM 3-AT, 28°C, and β-galactosidase activity (X-gal, ONPG)
Assay [1] has as its target Opuntia streptacantha SK3 dehydrin OpsDHN1, full-length version, split-ubiquitin fusion (Opuntia streptacantha).
For assay [2], the target named is OpsDHN1-SK2, C-terminal truncated version (residues 1-199), split-ubiquitin fusion (Opuntia streptacantha).
The target in assay [3] is OpsDHN1-S(ΔH)K3, version without the histidine-rich motif (residues 1-111/138-248), split-ubiquitin fusion (Opuntia streptacantha).
Assay [4] has as its target SV40 LargeT antigen (Cub) (SV40).

For the substance “OpsDHN1-SK2, C-terminal truncated version (residues 1-199), split-ubiquitin fusion (domain or fragment)”, in assay [1], the β-galactosidase activity (two-hybrid reporter) (nmol ONP/min/mg protein) stood at 146.
For the substance “Opuntia streptacantha SK3 dehydrin OpsDHN1, full-length version, split-ubiquitin fusion (natural protein)”, the β-galactosidase activity (two-hybrid reporter) (nmol ONP/min/mg protein) in assay [2] turned out to be 142; in assay [3] it was 70.5; in assay [1], 462.
“tumor suppressor Δp53 (NubG) (domain or fragment)”: the β-galactosidase activity (two-hybrid reporter) (nmol ONP/min/mg protein) in assay [4] turned out to be 656.
